From patent US20250263467A1

Biological target: SARS-CoV-2 Spike protein on pseudotyped virus (SARS-CoV-2 (Wuhan-Hu-1)) (UniProt P0DTC2)
Experiment: cell-based or functional assay

Substance	maximum neutralization, VSV pseudotype, 293T ACE2 cells [%]	maximum neutralization, VSV pseudotype, A549-ACE2-TMPRSS2 clone 10 cells [%]	maximum neutralization, VSV pseudotype, Huh7 cells [%]	maximum neutralization, VSV pseudotype, MRC5-ACE2-TMPRSS2 cells [%]	maximum neutralization, VSV pseudotype, Vero E6-TMPRSS2 cells [%]	maximum neutralization, VSV pseudotype, Vero E6 cells [%]	EC50, neutralization of pseudotyped virus [µg/mL]
S309 rIgG1-LS (antibody)	34	42	78	45	96	> 99	
sotrovimab (antibody)							0.0241
